Columns and labels:
CD20 (human) [1] = target: CD20 (human) (UniProt P11836); experiment: cell-based or functional assay
CD37 (human) [2] = target: T1, CD37 (human) (UniProt P11049); experiment: cell-based or functional assay
T1 sequence (looked up): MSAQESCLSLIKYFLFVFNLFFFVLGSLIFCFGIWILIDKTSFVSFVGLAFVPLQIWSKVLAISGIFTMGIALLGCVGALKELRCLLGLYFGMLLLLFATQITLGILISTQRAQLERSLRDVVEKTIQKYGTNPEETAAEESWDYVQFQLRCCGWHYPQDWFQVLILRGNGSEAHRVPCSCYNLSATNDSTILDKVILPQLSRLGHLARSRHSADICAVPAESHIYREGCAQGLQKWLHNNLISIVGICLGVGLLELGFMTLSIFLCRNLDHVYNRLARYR

CD20 (human) [3] = target: CD20 (human) (UniProt P11836); experiment: competition flow cytometry on Ramos B-cells; competitor PE anti-CD20 antibody [upper graph (Detection of PE-CD20 mAb]
CD37 (human) [4] = target: T1, CD37 (human); experiment: competition flow cytometry on Ramos B-cells; competitor FITC anti-CD37 antibody [lower graph (Detection of FITC-CD37 mAb]

Chain of CD20 (human) (P11836 whole entry): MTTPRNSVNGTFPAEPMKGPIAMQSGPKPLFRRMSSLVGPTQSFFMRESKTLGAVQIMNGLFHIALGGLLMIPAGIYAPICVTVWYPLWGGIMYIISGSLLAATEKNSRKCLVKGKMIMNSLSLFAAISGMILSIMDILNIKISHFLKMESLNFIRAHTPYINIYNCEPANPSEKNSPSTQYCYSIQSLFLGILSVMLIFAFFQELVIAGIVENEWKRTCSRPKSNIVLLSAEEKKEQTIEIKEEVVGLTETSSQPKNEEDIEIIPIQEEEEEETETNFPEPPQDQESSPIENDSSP

CD20×CD37 bispecific scorpion (015×016) (bispecific antibody)
IC50 (nM), direct growth inhibition of DoHH2 cells, 96 h, ATP detection (CD20 (human) [1]): 0.05 nM
IC50 (nM), direct growth inhibition of SU-DHL-6 cells, 96 h, ATP detection (CD20 (human) [1]): 0.05 nM
IC50 (nM), direct growth inhibition of DoHH2 cells, 96 h, ATP detection (CD37 (human) [2]): 0.05 nM
IC50 (nM), direct growth inhibition of SU-DHL-6 cells, 96 h, ATP detection (CD37 (human) [2]): 0.05 nM
IC50 (read off the curve) (CD20 (human) [3]): 5 nM
IC50 (read off the curve) (CD37 (human) [4]): 2 nM

— US20140154252A1
